Measurements reported in the supplement of paper PMC9732359.
± gives the uncertainty stated by the source.

Assay: protein stability index of a GFP-peptide fusion (yeast GPS) (PSI 1-4); higher = more stable; sorted into four equal gates, so the index is relative within each strain
Method in brief: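 Peptides tiling yeast proteins in 17-residue segments were fused downstream of GFP, with Cherry expressed from the same plasmid. As a pooled library in yeast, mid-log cultures grown in leucine-free medium were sorted into four equal gates by GFP/Cherry fluorescence ratio. Gate plasmids were PCR-amplified and Illumina-sequenced, and barcodes linked reads to strains. Each peptide received a protein stability index equal to the sum of each gate's read frequency times its gate number.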

Sequence	protein stability index (doa10∆)	protein stability index (pdr5∆)	protein stability index (san1∆)	protein stability index (ubr1∆)
SKTGSVDTLHNKEGTLE [SSN2]	3.46 ± 0.24	3.14 ± 0.16	3.19 ± 0.083	3.4 ± 0.14
KKNIDYQNRSTRSQFCL [RRI1]	3.01 ± 0.039	2.94 ± 0.04	2.88 ± 0.034	3.079 ± 0.026
GNDAKPAKVEDVQKSSD [YLR335W/NUP2]	3.3 ± 0.064	3.2 ± 0.058	3.17 ± 0.052	3.13 ± 0.051
INGWELTKAQKYLEQVL [RPL17A]	3.34 ± 0.06	3.44 ± 0.053	3.4 ± 0.036	3.36 ± 0.046
AFDVDRAKSCGVDAMSV [RPL1A]	2.79 ± 0.092	2.73 ± 0.094	2.76 ± 0.091	2.71 ± 0.055
HVKVNDKKEMTIYNNIR [SIR3]	3.04 ± 0.052	2.91 ± 0.062	2.87 ± 0.04	3.228 ± 0.032
KVAQLRQTGPAKINEVY [NSL1]	2.97 ± 0.14	3.04 ± 0.15	2.84 ± 0.1	3.58 ± 0.11
IVLLDDEGKEIPATIFD [TAF14]	2.82 ± 0.06	3.07 ± 0.048	3.04 ± 0.035	3.06 ± 0.05
LKDLMDLCDVVESKFTE [RPC19]	3.61 ± 0.2	3.5 ± 0.11	3.27 ± 0.11	3.26 ± 0.12
EFEIPVSFNGFKLPKKF [BRR2]	2.58 ± 0.1	2.94 ± 0.12	2.61 ± 0.12	2.91 ± 0.094
SKFHFSWNESEDTLSGY [PRP28]	3.07 ± 0.12	3.19 ± 0.12	3.2 ± 0.075	3.47 ± 0.058
NVTQNEQQWITRAQYLA [SRP68]	1.42 ± 0.08	1.54 ± 0.072	1.19 ± 0.13	1.28 ± 0.064
VKGTNISEKDLVPKRCL [RPO31]	2.63 ± 0.12	3.39 ± 0.13	3.42 ± 0.082	3.12 ± 0.09
MFTQIYLERIELSFYIL [YML103C/NUP188]	1.66 ± 0.1	1.46 ± 0.074	1.36 ± 0.1	1.75 ± 0.12
SMRTIMKANPALYVLRE [PRP8]	–	1.91 ± 0.29	–	1.37 ± 0.28
QLVEITEQIKMRILSND [SRB8]	2.49 ± 0.045	2.45 ± 0.043	2.44 ± 0.043	2.48 ± 0.034
NVKYRAVVFKPFKGEVV [RPB7]	2.96 ± 0.12	2.85 ± 0.047	2.43 ± 0.075	2.86 ± 0.075
WNRADNHFKDTYGFSIL [FAS1]	3.07 ± 0.12	2.57 ± 0.069	3.35 ± 0.083	3.27 ± 0.092
TEKMEEQLDLLSAILDP [MED11]	3.14 ± 0.087	3 ± 0.1	3.13 ± 0.12	3.4 ± 0.1
EVGMKVQSGQIYINKSV [RET1]	2.83 ± 0.074	3.05 ± 0.073	2.6 ± 0.082	3.08 ± 0.069

Sequence	protein stability index (doa10∆)	protein stability index (pdr5∆)	protein stability index (san1∆)	protein stability index (ubr1∆)
QSEDLSHAVEFFMSERS [YML103C/NUP188]	3.29 ± 0.077	3.37 ± 0.089	3.25 ± 0.066	3.18 ± 0.059
QNVTSETHSKKRKKEAN [ITC1]	2.92 ± 0.075	3.02 ± 0.075	2.94 ± 0.041	3.08 ± 0.073
DDENNPSHYPHPYEYEI [RRP6]	3.03 ± 0.064	2.89 ± 0.063	2.74 ± 0.054	2.89 ± 0.029
EEERRKKRESGVEEEEE [SNF2]	3.49 ± 0.079	3.35 ± 0.1	3.38 ± 0.11	3.46 ± 0.047
MKKKLELISYRNESLKN [SRB8]	2.96 ± 0.045	2.98 ± 0.058	2.94 ± 0.05	3.07 ± 0.035
EKTMVKKNLGRLTRLWI [PRP8]	2.28 ± 0.13	3.07 ± 0.12	1.45 ± 0.14	1.67 ± 0.2
LAYAVLGIALIALGEDI [RPN1]	1.73 ± 0.094	1.72 ± 0.094	1.98 ± 0.11	2.33 ± 0.06
RELTKNILWRIADKTTY [SIR4]	3.02 ± 0.094	2.6 ± 0.065	2.68 ± 0.11	3.02 ± 0.05
PKAISNFLIKLSELSPG [YCS4]	2.37 ± 0.08	2.51 ± 0.085	2.08 ± 0.095	2.01 ± 0.056
QAKLKKNVETLEEKILA [SMC4]	3.09 ± 0.08	2.98 ± 0.077	3.13 ± 0.077	3.13 ± 0.066
WRAIIKAIFPNTVDGDL [FAS1]	2.58 ± 0.13	2.75 ± 0.15	2.6 ± 0.094	–
EKWLLNQIPVTEHSKVT [SRB6]	1.9 ± 0.051	2.6 ± 0.068	1.99 ± 0.12	2.37 ± 0.057
EVRILPRQRMEEVVSND [PRP8]	2.52 ± 0.11	2.73 ± 0.084	2.69 ± 0.064	2.57 ± 0.084
VQQFAQLPVGFKNMGNT [UBP6]	2.03 ± 0.1	1.74 ± 0.076	1.44 ± 0.15	1.92 ± 0.06
DRELNEVINQMERLDGD [SMC3]	3.13 ± 0.086	3.29 ± 0.083	3.2 ± 0.08	3.1 ± 0.045
ERRMQVTAEDFKQAKER [RPT2]	3.02 ± 0.1	3.29 ± 0.11	3 ± 0.088	3.56 ± 0.12
FQIDNDNIRYATALQTC [SMC2]	1.8 ± 0.052	1.78 ± 0.047	1.45 ± 0.073	1.74 ± 0.052
VPQSEETRAELSQLCAV [RPO21]	2.37 ± 0.067	3.02 ± 0.065	2.79 ± 0.067	3.09 ± 0.061
TEGRSRDGGLRLGEMER [RET1]	1.35 ± 0.081	1.82 ± 0.12	1.49 ± 0.28	1.58 ± 0.071
